Assay results from paper PMC12713436.

Tests used:
[1] = molecular target: secretory immunoglobulin A1 (sIgA1) from human colostrum (human (endogenous in colostrum)) (UniProt P01591)
[2] = molecular target: frutalin (FTL), galactose-specific jacalin-related lectin from Artocarpus altilis (syn. Artocarpus incisa) seeds (Artocarpus altilis (syn. Artocarpus incisa)); experiment: SEC; FTL alone on a Superdex column equilibrated in PBS + 50 mM D-galactose; single peak at Ve = 15.57 mL; apparent mass from calibration; oligomer of alpha-beta protomers
[3] = molecular target: secretory immunoglobulin A1 (sIgA1) from human colostrum (human (endogenous in colostrum)) (UniProt P01591); experiment: dynamic light scattering; sIgA1 titrated with FTL (0.06–1.94 mg/mL); Z-average diameter against FTL:sIgA1 molar ratio; Hill fit; apparent KD
[4] = molecular target: secretory immunoglobulin A1 (sIgA1) from human colostrum (human (endogenous in colostrum)) (UniProt P01591); experiment: BLI; Octet RED96; sIgA1 immobilised on AR2G biosensors via amine coupling, FTL as analyte; 25 °C; PBS with 0.02% Tween-20; global fit, 1:2 bivalent analyte model

## frutalin (FTL), galactose-specific jacalin-related lectin from Artocarpus altilis (syn. Artocarpus incisa) seeds (natural protein)
[1]
  hemagglutination titer (rabbit erythrocytes) of the preformed FTL–sIgA1 complex at 1 mg/mL, with 0 to 200 mM D-galactose (∼2^8 at 200 mM); free FTL ∼2^17 (∼2^9 at 200 mM galactose); sIgA1 alone ∼2^4: 65500 HU
[2]
  stoichiometry N: 2
[3]
  stoichiometry N: 1 to 1.5 FTL:sIgA1
[4]
  koff: 0.00214 s⁻¹
  kon: 596000 M⁻¹ s⁻¹
